Biological target: the molecule itself
Experiment: SEC; purified GATA4 on Superdex200 Increase 10/300 GL in 20 mM HEPES-NaOH pH 7.4, 100 mM NaCl; fractions blotted with anti-GATA4

B1: Full length GATA4 produced by E. coli (natural protein)
chain: not shown
notes: GATA4, full length; also called purified GATA4; recombinant GATA4; source: E. coli BL21 DE3, purified (Glutathione-Sepharose 4B, GST removed with HRV3C protease)
  stoichiometry N: ~8
